{
  "source": "patent US11397178B2",
  "about": "“Method of predicting progression of idiopathic pulmonary fibrosis and monitoring of therapeutic efficacy” (Cedars-Sinai Medical Center, priority 2016, dated 2022)",
  "molecules": {"B1": {"name": "KB004: afucosylated anti-EphA3 mAb supplied by Kalobios; targets EphA3+ cells via antibody-dependent cell-mediated cytotoxicity (ADCC) (antibody, chains of the INN, looked up, V domains shown)", "VH": "QVQLVQSGAEVKKPGASVKVSCKASGYTFTGYWMNWVRQAPGQGLEWMGDIYPGSGNTNYDEKFQGRVTMTRDTSISTAYMELSRLRSDDTAVYYCARGGYYEDFDSWGQGTTVTVSS", "VL": "DIQMTQSPSFLSASVGDRVTITCRASQGIISYLAWYQQKPEKAPKRLIYAASSLQSGVPSRFSGSGSGTEFTLTISSLQPEDFATYYCGQYANYPYTFGQGTKLEIK"}},
  "key": {"[1]": {"test_system": "murine IL-2, IL-10, IL-12-p70, and TNFα", "experiment": "Bioplex analysis of mouse cytokines in BAL of humanized NSG mice", "format": "in vivo", "details": "days 0 to 35 or days 35 to 63", "experimental": "(A-E) Murine IL-2 (A), IL-10 (B), IL12-p70 (C), IFNγ, and TNFα in the BAL from non-humanized and humanized NSG mice treated with KB004 or KB243 from days 0 to 35, or from days 35 to 63 after IPF cell injection. Mouse cytokines were measured using Bioplex and data shown are mean±sem; n=5-10/group. ****p≤0.0001\nLungs in non-humanized and humanized NSG mice were washed using 1 ml of saline solution, and the resulting BAL was centrifuged to remove cells and the supernatants were stored at −80° C. until analysis. Mouse cytokines in the BAL were measured using predesigned Bioplex assays (Bio-Rad) as recommended by the manufacturer, […]"}, "[2]": {"test_system": "CCR10+ cells", "experiment": "Humanized NSG-GFP mice: KB004 / KB243 treatment (GFP IHC, flow cytometry)", "format": "in vivo, human IPF cells in NSG-GFP mice", "details": "5 mg/kg i.p. twice a week for 5 weeks, day 35", "experimental": "NSG-GFP mice. (A) IPF cells were injected intravenously into NSG-GFP mice, and 2 hours later groups of mice received either 5 mg/kg of KB004 (an afucosylated anti-EphA3 mAb) or KB243 (an isotype control) via intraperitoneal injection. Both groups of mice were injected twice a week with the antibodies for 5 weeks after which lungs and spleen were collected for histological and/or flow cytometric analysis. (B-C) Depicted are representative images of GFP-stained NSG mouse lung (red indicates the presence of transgenic GFP mouse cells) at day 35 after IPF lung injection in both the KB243 (B) and KB004 (C) treatment groups. (D) Flow cytometric dot plots depicting GFP^− staining for human-CD45, CCR10 and/or EpCAM proteins. Representative dot plots for (from left to right) GFP^− cells expressing CD45, CD45, and CCR10 or CCR10 alone in humanized NSG-GFP mice treated either with KB243 (top) or KB004 (bottom) antibodies are shown. (E-F) The average number of GFP^− CD45^+ CCR10^+ (E) and GFP^− Lin^− CCR10^+ (F) cells in non-humanized and humanized NSG mice treated with either KB243 or KB004. Data shown are mean±sem n=4-5/group. *p≤0.05\nSix to eight-week old, female, pathogen free NOD Cg-Prkdc^SCID IL2rg^Tm1wil Szi (NSG) or NOD.Cg-Prkdc^SCID IL2rg^tm1Wil Tg(CAG-EGFP) 10sb/SzJ (NSG-GFP) were purchased from Jackson Laboratories and housed in Cedars-Sinai Medical Center's high isolation animal rooms. […] All NSG groups were monitored daily and mice were sacrificed if there is evidence for morbidity such as weight loss of more than 20%, loss of fur, paralysis and/or lack of responsiveness when handled.\nMurine lung cellular suspensions were generated using a mouse lung dissociation kit, C-tubes, and a GentleMacs dissociator (Miltenyi Biotech). […] Unstained, isotype controls, fluorescent minus one controls and staining in non-humanized murine lung and spleen suspensions were utilized to gate out any non-specific antibody binding and background fluorescence. […]"}, "[3]": {"test_system": "EphA3 expressing cells", "experiment": "IPF explant cell challenged NOD/SCID mice treated with anti-EphA3 antibody", "format": "in vivo", "details": "listed as afucosylated anti-EphA3 antibody", "source_text": "IHC analysis indicated the presence of these cells near honeycombing cysts, in the interstitium and their expansion in IPF lung biopsies and explants relative to normal lungs."}},
  "note": "“Also recorded” adds a separate entry of the source.",
  "data": [
    {"molecule": "B1", "values": [
      {"measurement": "inflammation in the mouse lung (BAL murine cytokines)", "setting": "[1]", "value": "neither KB243 or KB004 treatments in humanized NSG mice evoked inflammation"},
      {"measurement": "GFP cells in lung by IHC, KB004 compared with KB243", "setting": "[2]", "value": "fewer GFP cells"},
      {"measurement": "number of CD45+ CCR10+ cells compared with KB243 group", "setting": "[2]; flow cytometry", "value": "significantly reduced"},
      {"measurement": "number of Lin- CCR10+ cells compared with KB243 group", "setting": "[2]; flow cytometry", "value": "significantly reduced"},
      {"measurement": "fibrotic response / lung remodeling", "setting": "[3]", "value": "ameliorated the fibrotic response; also recorded: ameliorated lung remodeling"}
    ]}
  ]
}
